According to article PMC12073449, “Development of a Mechanism of Action-Reflective Cell-Based Reporter Gene Assay for Measuring Bioactivities of Therapeutic Glucagon-like Peptide-2 Analogues” (Molecules, 2025):
Square brackets hold non-standard residues; d marks the D form. Ends that are not written are not given here. Nle = CCCC[C@H](N)C(=O)O

Tests used:
[1] = system: dipeptidyl peptidase 4 (DPP-4); details: cited from earlier work
Text: (§1) This truncated form is subsequently degraded by endopeptidases and presumably cleared via renal excretion. […] Consequently, DPP-4 resistant GLP-2 analogues with an extended half-life were developed.

patients with SBS = details: cited from earlier work
Text: as §1

rat GLP-2R = details: BHK fibroblasts stably transfected with the rat GLP-2R; cited from earlier work
Text: GLP-2 exerts its effects largely through interaction with the GLP-2 receptor (GLP-2R), which belongs to the class B1 of the G protein-coupled receptors. […] This led to the hypothesis that GLP-2 acts indirectly through a complex network of indirect mediators that induce diverse signaling pathways, which remains poorly understood.

[2] = system: enteric neurons and glial cells; details: via the PI3K/Akt/mTOR pathway; cited from earlier work
Text: (§2) GLP-2 regulates proliferative and cytoprotective pathways in the intestine. […] Additionally, it couples with the activation of the Ras/MAPK pathway and stimulates DNA synthesis.

intestinal epithelium = details: rodents; cited from earlier work
Text: as §2

human GLP-2R [3] = biological target: T1, human GLP-2R (Homo sapiens, UniProt O95838); experiment: Cell-based reporter gene assay (RGA), HEK293-GLP-2R-Luc, CRE-luciferase; details: for dose-response curve in RGA / concentration–response curve in RGA (specificity): diluted to 2.665 µmol/L and further 7-fold for 10 concentration points, HEK293-GLP-2R-Luc cells; for Mean potency: mean of 8 tests, two analysts
T1 construct: The full-length cDNA of human GLP-2R was synthesized, cloned, and inserted into the pLU.cmv.Zeo vector; expressed in transfected cells
T1 sequence (O95838 1-553): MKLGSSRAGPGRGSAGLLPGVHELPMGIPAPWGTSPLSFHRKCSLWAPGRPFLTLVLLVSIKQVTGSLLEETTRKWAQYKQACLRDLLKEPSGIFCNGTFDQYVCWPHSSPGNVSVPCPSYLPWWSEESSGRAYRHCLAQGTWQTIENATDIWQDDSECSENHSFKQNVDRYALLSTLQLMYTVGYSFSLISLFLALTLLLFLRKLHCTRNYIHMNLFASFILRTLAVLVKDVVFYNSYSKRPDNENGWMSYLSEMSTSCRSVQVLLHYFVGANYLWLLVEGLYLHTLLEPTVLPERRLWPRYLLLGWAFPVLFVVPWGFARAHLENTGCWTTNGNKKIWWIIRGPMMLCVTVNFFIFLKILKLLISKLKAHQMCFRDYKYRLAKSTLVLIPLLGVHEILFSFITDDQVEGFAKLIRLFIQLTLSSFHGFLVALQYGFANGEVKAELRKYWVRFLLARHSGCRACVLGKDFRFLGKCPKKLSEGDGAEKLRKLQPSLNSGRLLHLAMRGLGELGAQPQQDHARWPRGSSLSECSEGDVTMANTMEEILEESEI
Method: To generate a HEK293 cell line stably expressing CRE-driven luciferase and GLP2R, the CRE-miniP.Luc virus-containing cell supernatants were diluted in DMEM in the presence of 8 µg/mL polybrene before being added to HEK293 cells. To obtain a stable cell pool, the medium was replaced 48 h after incubation, with fresh culture medium containing 3 µg/mL puromycin. After about 3 weeks selection, the cell pool was then further infected with pLU.cmv-GLP2R.Zeo virus and selected with 200 µg/mL Zeocin and 3 µg/mL puromycin. […] The expression of GLP-2R was examined using flow cytometry. After that, the positive clones were routinely maintained in selective medium.
Cell-based RGA has been described previously. Briefly, 50 microliters of HEK293-GLP-2R-Luc cells were seeded into a 96-well white plate at a density of 4 × 10^4 cells/well. The cells were then incubated at 37 °C with 5% CO2 overnight (16 to 24 h). […] After 5 h of incubation, 100 µL of britelite plus reporter Gene Assay reagent were added to each well and mixed thoroughly under subdued light conditions for 5 min. The RLU signal was then determined with a SpectraMax M5e multimode plate reader (Molecular Devices, San Jose, CA, USA).
The RGA was validated as described previously. […] Samples of each potency level were tested by two analysts 8 times in total. […] The response of HEK293-GLP2R-Luc cells to these samples were determined as illustrated in 4.6.
The lower/upper asymptote was determined by the ratio of the top asymptote to the bottom asymptote when RGA best fit the 4PL model. The correlation coefficient (R^2), deviations from parallelism, and the regression in the 4PL model were estimated using SoftMax® Pro 7.1 software (Molecular Devices, San Jose, CA, USA). Specifically, a linear regression with an R^2 value no less than 0.98 was considered to have a very good fit. Additionally, a p-value below 0.01 was regarded as statistically significant. […] All the dose-response curves were plotted using GraphPad Prism® software 8.0.2 (GraphPad, Boston, MA, USA).

rat = system: rat; parameters: method as in PMID 31577440; details: head-to-head preclinical study; cited from earlier work
[4] = parameters: method as in PMID 35933503; details: general statement; cited from earlier work
Text: The diverse functions of GLP-2 highlight its significance in maintaining intestinal health and physiology. As a naturally occurring gut hormone, GLP-2 not only promotes nutrient absorption by decreasing intestinal motility and permeability, but also plays a pivotal role in stimulating intestinal epithelial cell growth and function. This multifaceted action of GLP-2 is crucial for the maintenance of the intestinal barrier, which is essential for preventing the translocation of harmful bacteria and toxins into the bloodstream.

intestinal cells = system: intestinal cells; parameters: method as in PMID 32060615; details: cited from earlier work
[5] = Teduglutide content by HPLC after storage at 37 °C; assay type: physicochemical; details: XBridge Peptide BEH C18, 214 nm, peak area ratio to non-treated DS
Method: The bioactivities of the treated and non-treated DS were then measured by the RGA. The teduglutide contents were analyzed by HPLC. An XBridge Peptide BEH C18 column (300 A, 5 μm, 4.6 mm × 250 mm) purchased from Waters (Milford, MA, USA) was used with a flow rate of 1.0 mL/min and was detected at 214 nm. The mobile phase was aqueous solution containing 0.1% trifluoroacetic acid and acetonitrile containing 0.1% trifluoroacetic acid. A total of 50 μL DS samples were injected into the column.

[6] = Appearance of teduglutide drug substance solution after storage at 37 °C; assay type: physicochemical; details: after incubation for 12 or 14 days at 37 °C
human GLP-2R [7] = biological target: T1, human GLP-2R; experiment: Cell-based reporter gene assay (RGA), HEK293-GLP-2R-Luc, CRE-luciferase; details: incubation time 5 h and 6 h, compared with 4 h; 96-well plate

Substance: GLP-2 (3–33): truncated and inactive GLP-2 formed by DPP-4 (DGSFSDEMNTILDNLAARDFINWLIQTKITD; Glucagon-like peptide 2; UniProt P01275 148-178, looked up, fragment)
- activity of truncated GLP-2 ([1]; DPP-4 cleavage product): inactive

Substance: Glucagon-like peptide-2 [GLP-2]
- inactivation by DPP-4 ([1]; excision of the two N-terminal amino acids): rapid inactivation
- intestinal absorption, growth and transit in SBS (patients with SBS; SBS): increase intestinal absorption by promoting intestinal growth and delays accelerated gastric emptying, gastrointestinal transit, and hypersecretions
- cAMP accumulation (rat GLP-2R): dose-dependent cAMP accumulation
- neuronal differentiation [2]: stimulate neuronal differentiation
- growth of the intestinal epithelium (intestinal epithelium): enhances the growth of the intestinal epithelium

Substance: HGDGSFSDE[Nle][dF]TILDLLAARDFINWLIQTKITD-NH2 [apraglutide, GLP-2 analogue under development for SBS, synthesized by GenScript]
- dose-response curve in RGA (human GLP-2R [3]): induced sigmoid curves similar to those induced by teduglutide
- dependence on PN support (patients with SBS; Phase II clinical trials, SBS): significant reduction in patients’ dependence on PN support
- half-life compared to teduglutide and glepaglutide (rat): longer half-life
- intestinotrophic effect compared to teduglutide and glepaglutide (rat): greater intestinotrophic effect
- bioactivity [4]: enhanced bioactivities
- half-life [4]: extended half-lives

Substance: HGEGSFSSELSTILDALAARDFINWLIATKITDKKKKKK [elsiglutide, GLP-2 analogue under development, synthesized by GenScript]
- dose-response curve in RGA (human GLP-2R [3]): induced sigmoid curves similar to those induced by teduglutide
- cell proliferation and intestinal cell apoptosis (intestinal cells): increase cell proliferation and reduce intestinal cell apoptosis
- bioactivity [4]: enhanced bioactivities
- half-life [4]: extended half-lives

Substance: His-Gly-Asp-Gly-Ser-Phe-Ser-Asp-Glu-Met-Asn-Thr-Ile-Leu-Asp-Asn-Leu-Ala-Ala-Arg-Asp-Phe-Ile-Asn-Trp-Leu-Ile-Gln-Thr-Lys-Ile-Thr-Asp [teduglutide, [Gly2] hGLP-2 (1–33), first and only GLP-2 analogue approved for medical treatment of short bowel syndrome]
- response of five clones (human GLP-2R [3]; clones D5, D9, E11, F2, G11): high response
- Mean Ln potency (human GLP-2R [3]; expected 50%): −0.659
- Mean potency (human GLP-2R [3]; expected 50%): 0.518
- Mean Ln potency (human GLP-2R [3]; expected 71%): −0.343
- Mean potency (human GLP-2R [3]; expected 71%): 0.711
- Mean Ln potency (human GLP-2R [3]; expected 100%): 0.005
- Mean potency (human GLP-2R [3]; expected 100%): 1.007
- Mean Ln potency (human GLP-2R [3]; expected 141%): 0.372
- Mean potency (human GLP-2R [3]; expected 141%): 1.453
- Mean Ln potency (human GLP-2R [3]; expected 200%): 0.757
- Mean potency (human GLP-2R [3]; expected 200%): 2.140
- teduglutide content ([5]; end of decline with incubation at 37 °C): 81.6%
- teduglutide content ([5]; start of decline, 37 °C): 99.9%
- precipitation of DS solution [6]: develops a clear colloidal precipitate
- drug response vs incubation time (human GLP-2R [7]): stronger response (higher upper asymptote)
- intestinal absorption, growth and transit in SBS (patients with SBS; SBS): increase intestinal absorption by promoting intestinal growth and delays accelerated gastric emptying, gastrointestinal transit, and hypersecretions
- PN requirements and intestinal function (patients with SBS; patients with SBS, daily treatment): significant reduction in PN requirements and an improvement in intestinal function
- bioactivity [4]: enhanced bioactivities
- half-life [4]: extended half-lives

Substance: IL-4: 200-04, Thermo Fisher Scientific
- concentration–response curve in RGA (specificity) (human GLP-2R [3]): no dose–dependent response curve was induced

Substance: IL-6: 200-06, Thermo Fisher Scientific
- concentration–response curve in RGA (specificity) (human GLP-2R [3]): no dose–dependent response curve was induced

Substance: glucagon-like peptide-1 [GLP-1]
- concentration–response curve in RGA (specificity) (human GLP-2R [3]): unsuccessfully induced

Substance: glucose-dependent insulinotropic peptide [GIP]
- concentration–response curve in RGA (specificity) (human GLP-2R [3]): unsuccessfully induced
